Experiment: yeast display, Sf9 membrane polyspecificity reagent, FACS + sequencing; frameworks hold sequencing errors
How it was run: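 After 36–48 hours of galactose induction, yeast (Saccharomyces cerevisiae BJ5465) displaying a synthetic nanobody library were stained at 4 °C for 1 hour with 10% biotinylated, detergent-solubilized Sf9 membrane reagent. Streptavidin microbeads enriched the stained cells before FACS sorting into low and high (top ~1%) gates on anti-HA and streptavidin fluorescence. Each clone's polyreactivity label reflects its gate of origin.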

| Sequence | polyreactivity (PSR sort gate) |
| --- | --- |
| QVQLVESGGGLVQAGGSLRLSCAASGSTLISYTMGWYRQAPGKERELVAAITSAVTTYYADSVKGRFTISRDNAKNTVYLQMNSLIPEDTAVYDCNAVPDTRSGELDYWGQGTQVTVSS | low polyreactivity |
| QVQHVESGGALVQAGGSLRLSCAASGSTFTRNAMGWDRHAPGKERELVAAITSSGTSTYYADSVKGRFTISRDNAKNTVYLQMNSLKPEATAVYYCAAGIQSTYPKGGYRVTYYYWGQGTQVTVSS | high polyreactivity |
| QVQLVESGGGLVQAGGSLRLSCAASGSTFSGYAMGWYRLAPGKERELVASISSGGRTTYADSVKGRFTISRDNAKYTVYLQMNSLKPEDTAVSYCANRIRPGYARLYSWGQGTQVTVSS | high polyreactivity |
| HVQLVESGGGLVQAGGSQRLSCAPSGSTFYYNAMGSYRQAPGKERELVAAISKTGGSTYYADSVKGRFTISRDYAKNTVYLQMNSLKPVDTAVYYCAAVGSRGAWARRGYWGQGTHVTVSS | high polyreactivity |
| QVQLVESGGGLVQAGGSLRLSCAASGRIFYHYAMGWYRQAPGKERELVAAITWSGVSTYYADSVKGRFTISRDNAKNTVYLQMNSLKPDDTAVYYCATSSRYGVRRYSRGSWGQGSQVTVSS | high polyreactivity |
| QVQHVESGGGLVQAGGSLRLSCAASGFTFWYYAMGWYRRATGKERELIASISSIGGSTYYADSVKGRYTISRDNAKNTVYLQMNSLKAEDTAVYYCAARYKFLRGGVRRDYWGQGTQVTVSS | high polyreactivity |
| QVQLVESGGGLVQAGGSLRLSCAASGITIVRYAMGWYRQAPGKERELVAAINRSGGSTYYADSVKGRFTISRDNAKNTVYLQMNSLKPEDTAVYYCAARLYGKYDPPGYYYWGQGTQVTVSS | high polyreactivity |
| QVQLLESGGVLVQAGGSLRLSCAASGFTFWYYAMGWYRQAPGKQRELVATITWNVGSTYYADSVKGRFTISRDNAKNTVYIQMNTLKPEDTAVYYCNKSYSRSSYWQYYYWGQGTQVTVSS | low polyreactivity |
| QVQLVESGGGLVQAGGSLRLSCAASGFIFDYYAMGWYRQAPGKERELVAGISWSGGSTYYADSVKGRFTISRDNAKNTVYLQMNSLKPEDTAVYYCNAEYSVPFYLYYYWGQGTQVTVSS | low polyreactivity |
| QVQLVESGGGLVQAGGSLRLSCAASGITFRSYAMGWNIQAPGKERELVAAITTGTRTYYADSVKGRFTISRDNAKNTVFLQMKSLKPEDTAVYYCARDGVGRVYGYLTPLGYDYWGHGTQVTVSS | low polyreactivity |
| QFQLVESGGGLVQAGGSLRLSCAASGRIFRGNAMGWYRQAPGKERELVAAILTGVSTYYADSVKGRFTISRDNAKNTVYLQMNSLKPEDTAVYYCAAERPSRRSGYEYWGQGTQVTVSS | low polyreactivity |
| QVQLVESGGGLVQAGGSLRLSCAASGRTFGPYAMGWYRQAPGKERELVAAISRSGSSTYYADSVKGRFTISRDTGKNNVYLQMNSLKPEDTAVYDCAVARSSPEYYYWGQGTQVTVSS | high polyreactivity |
| QVQLVESGGGLVQAGGRLRLSCAASGRTFGYNFMGWYRQAPGKERELVAAISSSGGSTYYADSVKGRFTISRDNGMNTVYLQMNSLKREDTAVYYCNARRGRASGMDYWGQGTQVTVSS | high polyreactivity |
| QVQLVESGGGLVQAGGSLRLTCAASGSTFGVYAMGWYRQAPRKDRELFAAISSSTGSTYYADSVKGRFTISRHKAKNTVYLQRNSLKPEDTAVYYRAAAGYGKVRGDYWGQGTQVTVSS | low polyreactivity |
| QVQLVESGGGLVQAGGSLRLSCAASGSPFVDNAMGWYRQAPGKEMELVAAIRDGSGGSTRYADSVKGRFTISRDNAKNTVYLQMHSLKPEVTAVYYCAADGYITVNYLRYDYWGQGTQVTVSS | low polyreactivity |
| QVQLVESGGVLVQAGGSLRLICAASVFTFYSYAIGWYRQATGTERELVAGISRSGGSTYYADSVKGRFTISRDNAKNTVYLHMNRLKPEDTAVYYCNVRLRKKIQNSKYDYWGQGTQVSVSS | high polyreactivity |
| QVQLVESGGGLVQAGGSLRLSCAATGFTFYVNAMGWYRQAPGKERELVAGITTSDGSTYYADSVKGRFTISRDNAKNTVYLQMNSLKPEDTAVYYCAAAITWYQLYQRSGGDYWGQGTQVTVSS | low polyreactivity |
| QVQLEESGGGLVQAGGSLRLSCAASGRTFTLNAMGWYRQAPGKEREFVAAISNSGVRTYYADSVKGRFTISRDNAKNTVYLQMNSLKPEDTAVYYCARTYQVGDSIDDYWGQGTQVTVSS | low polyreactivity |
| QVQLVESGGGLVQAGGSLRLSCAASGRIFSYYDMGWYRQAPGKERELVAAITWRGGSTYYADSVKGRFTISRDNAKNTVYLQMNSLKPEDTAVYYCAADWYPSIWEYDYWGQGSQVTVSS | low polyreactivity |
| QVQLVESGGGLDQAGGSLRLSCAASGFTFPWYPMGWYRQAPGKEREMVAAISTGGSTDYADSVKGRFTISRDNAKNTVYLKMNILKPEDTAVYYCNAGYWVRKYYHGGYWGQGTQVTLSS | high polyreactivity |
| QVQLVESWGGLVQAGGSLRLSCADSGYTFYTNAMGWYREAPGKERELVAAISIGGNTNYADSVKGRFTISRDNAKNTVYLQMNSLKPEDTAVYYCAKAWSGISSRDYDLDYWGQGTQVTVSS | low polyreactivity |
| QVQLVESGGGLVQAGGSLRLSCAASGRTFEYNAMGWYRQAPGKERELVAAISSSGGSTRYADSVKGRFTISRDNAKNTVYLQMNSLKPEDTAVYYCAKRGYTSSRRWIYDYRGQGTQVTVSS | high polyreactivity |

| Sequence | polyreactivity (PSR sort gate) |
| --- | --- |
| QVQLVESGGGLVQAGGSLRLSCAASGLTISRYAMGWYRQAPGKERELVAAITSIGGSTYYADSVKGRFTISRDNAKNTVYLQMNSLKPVDTAVYYCACLRCLFPGRFDYWGQSTQVTVSS | high polyreactivity |
| QVQLVESGGGLVQAGGSLRLSCAASGITFNPYTMGWYRQAPGKERELVADINRGGDTTYADSVKGRFTISRDNAKNTVYLQMNSLKPEDTAVYYCAKRLVQWMDYWGQGTQVTVSS | low polyreactivity |
| QVQLVESGGGLVQAGGSLRLSCAASGSTFRYNAMGWYRQAPGKERELVATITGSGGSTYYADSVKGRFTISRDNAKNTVYLQMNSLKPEDTAVYYCTARYVYGAYSSLSAHYYWGQGTQVTVSS | high polyreactivity |
| QVQLVESGGGLVQEGGSLRLSCAASGSTFSRYAMGWYRQAPGKERELVAAISSRGGSTYYADSVKGRFTISRDNAKNNVYLQMNSLKPEDTAVYYCNALTSYQNHVYPYDYWGQGTQVTVSS | high polyreactivity |
| QVQLVESGGGLVQAGGSLRLSCAASGGTFVSYAMGWYRQAPGKERELVAAITYSGGSTYYADSVKGRFTISRDNAKNTVYLQMNSLKPEDTGVYYCAAPKFSYFSYSPRGKFKYEYWGQGTQVTVSS | low polyreactivity |
| QVQLVESGGGLVQAGGSLRLSCAASGSIFKRYAMGWYRQAPGKERELVAGITSSGGSTYYADSVKGRFTISPDNAKNTVYLQMNSLKPEDTAVYYCAAPYSSYKVRPYDYWGQGTQVTVSS | low polyreactivity |
| QGQLVESGGGLVQAGGSLRLSCAASGSTFNSYAMGWYRQAPGKERELVAAISRGGASTYYADSVKGSFTISRDNAKNTVYLQMNSLKPEDTAVYYCATVYYHRFDYWGQGTQVTVSS | high polyreactivity |
| QFQLVESGGGLVQAGGSLRLSCAASGFIFRYNAMGWYRQAPGKERELVAAIDSGGSTYYADSVKGRFTISRDNAKNTVDLQMNSLKPEDTAVYYCYAVHEASYSGVDYWGQGTQVTVSS | low polyreactivity |
| QVQLVESGGGLVQAGGSLRLSCAASGRTFDTYAMGWYRQAPGKEREFVARISYGGGITYYADSVKGRFTISRDNAKNTVYLQMNSLKPEDTAVYYCAARRFRTYDFYYWGQGTQVTVSS | high polyreactivity |
| QVQLVESGGGLVQAGGSLRLRSAASGRTFVPYHMGCYRQAPGKERELVADISSGDSTNYTDSVKGRFTISRDNAKNTVYLQMNSLKPEDTAVYFCAADLTYTMDHWGLGTQVTVSS | low polyreactivity |
| QVQLVESGGGLVQAGGSLRLSCAASGSILYVYAMGRYRQAPGKERELVAAISGSGGSTYYADSVKGRFTISRDNAKNTVYLQMNSLKPEDTAVYYCAADYATVTWRGIAYDYWGLGTQVTVSS | low polyreactivity |
| QVQLVESGGGLVQAGGSLRLSCAASGSTFRYYAMGWYRQEPGKERELVASITRGASTNYADSVKGRFTISRDNAKNTVYIQMNSLKPEDTAVYYCAADNYWHTFGGTDLRDDYWGQGTQVTVSS | low polyreactivity |
| QVQLVESGGGLVQAGGSLRLSCAASGSIFDDYAMGWYRQAPGKERELVAAISWSGGRTYYADSVKGRFTISRDNAKNTVYLQMNSLKPEDTAVYYCAATTGVRSRRYYYWGQGTQVTVSS | low polyreactivity |
| QVQLVESGGGLVQAGGSLRLSCAASGSTFGYNDMGRYRQAPGKERELVADSSYSGDSTYSADSVKGRFTISRDNAQNTVYLQMNSLKPEDTAVYYCKADRFADYDDWGQGTQVTVSS | low polyreactivity |
| QVQLVETVGGLVQAGGSLRLSCAASGIIFKRYPLGGYRQAPGKERELVAAITNRGGTYYADSVKGRFTISRDNEKNSVYLQMYSLKPEDTAVYYFAARYYWIDFKFGGPRDYWGQGTQVTVSS | high polyreactivity |
| QVQLVESGGGLVQAGGSLRLSCAASGSTFWLNAMGWYRQAPGKERELVAAITGLGGSTYYADSVKGRFTISRDTAKNTVYLQMNSLKPEDTAVYYCAAGAYRRNKSDYYYWGQGTEVTVSS | low polyreactivity |
| QVQLVESGGGLVQAGGSLRLSCAASGYIFSYNAMGWYRQAPGKERELVAAITASGGGTYYADSVKGRFTISRDNAKNTVYLQMNSLKPDDTAVYYCAATPYSTQGLRPKFDYWGQGTQVTVSS | low polyreactivity |
| QVQLVETGGGLVQAGGSLRLSCAASGFIFVKYAMGWYRQAPGKERELVAAITTSGTGTFYADSVKGRFTISRDNAKNTVYLQMNSLKPVDTAVYYCNALGHPGDDWGQVTQVTVSS | low polyreactivity |
| QVQLVESGGGLVQAGGSLRLSCAASGSTFYYYAMGWYRQAPGKERELVAAINDSGDRTYYADSVKGRFTISRDNAKNNVYLQMNSLKPEDTAVYYCAADLVSLDPEYDYWGQGTQVTVSS | low polyreactivity |
| QVQLVESGGGLVQAGGSLRLSCAASGRIIRQYAMGWYRKAPGKERELVAVISAGGARTYYADSVKGRFTISRDNAKNTVYLQMNSLKPEDTEVYYCAAELPTSQYDYYYWGQGTQVTVSS | high polyreactivity |
| QVQLVETGGGLVQAGGSLRLSCAASGRIFDIYAMGWYRQAPGKERELVAAIDESGGSTYYADSVKGRFTISRDNAKNTVYLQMNSLKPEDTAVYYCATDDTWTISYGWYWFTYEYWGQGTQVTVSS | low polyreactivity |

Source: the nanobody polyreactivity screen of Harvey et al. (2022)
